Measured values from patent US20150038427A1 (SYMIC BIOMEDICAL, published 2015).
Ends that are not written are not given here. * marks the point of attachment. Dansyl = CN(C)c1cccc2c(S(=O)(=O)*)cccc12

How the values were obtained:
[1] = biological target: T1, collagen; test: fluorescence plate binding assay, dansyl peptide on collagen-coated 96-well plate, equilibrium
T1 construct: also called collagen-treated well; collagen surface
Experimental: (§1) Binding assays were done in a 96-well high-binding plate, black with a clear bottom (Costar). Collagen was compared to untreated wells and BSA coated wells. Collagen and BSA were immobilized at 37° C. for 1 hr by incubating 90 μL/well at concentrations of 2 mg/mL in 10 mM HCl and 1× PBS, respectively. Each well was washed 3× with 1× PBS after incubating. Z-SILY was dissolved in 1× PBS at concentrations from 100 μM to 10 nM in 10-fold dilutions. Wells were incubated for 30 min at 37° C. and rinsed 3× with PBS and then filled with 90 μL of 1× PBS. Fluorescence readings were taken on an M5 Spectramax Spectrophotometer (Molecular Devices) at excitation/emission wavelengths of 335 nm/490 nm respectively.

[2] = biological target: T1, collagen; test: fluorescence plate binding assay, dansyl peptide on collagen-coated wells, curve fitted to the data of FIG. 3
Experimental: as §1

Kd [1]: 860 nM
EC50 (read off the curve) [2]: ~900 nM
B1: Dansyl-GRRANAALKAGELYKSILYGC (peptide)
peptide: Dansyl-GRRANAALKAGELYKSILYGC
notes: Fluorescently labelled version of SILY, tested as free peptide; also called ZSILY; Z-SILY
